What was measured:
[1] = molecular target: T1, SERF1a (human, UniProt O75920-2 1-62); assay: fluorescence anisotropy
T1 sequence: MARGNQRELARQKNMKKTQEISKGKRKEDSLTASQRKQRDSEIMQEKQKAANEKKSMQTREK

[2] = molecular target: T2, YDL085C-A (S. cerevisiae, UniProt Q3E7B7 1-68); assay: fluorescence anisotropy
T2 sequence: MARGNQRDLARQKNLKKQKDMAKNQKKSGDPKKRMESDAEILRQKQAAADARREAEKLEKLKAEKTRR

[3] = molecular target: T3, Atto550-SERF1a (human, UniProt O75920-2 1-62); assay: fluorescence anisotropy
T3 sequence: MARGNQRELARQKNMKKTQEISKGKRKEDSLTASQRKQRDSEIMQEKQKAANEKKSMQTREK

[4] = molecular target: T3, Atto550-SERF1a; assay: fluorescence anisotropy; remark: listed apart in the source
[5] = molecular target: T1, SERF1a; assay: ITC

ACUGCUAGAGAUUUUCCACAU (ssRNA) [Cy3-R21(-)] was tested, and the Kd [1] was 4.81 ± 0.48 µM and the Kd [2] was 2.35 ± 0.56 µM.

B1: dsDNA 21mer (dsDNA)
DNA 1: ATGTGGAAAATCTCTAGCAGT
DNA 2: ACTGCTAGAGATTTTCCACAT
B1: no binding [3].

ACUGCUAGAGAUUUUCCACAU (ssRNA) [R21(-) / 21R(-)] was tested, and the Kd [4] was 4.39 ± 1.59 µM and the Kd [5] was 5.99 ± 2.32 µM.

Reference: doi:10.1101/713511
